Data reported in the DeepSol protein solubility set.

Assay: soluble on expression in E. coli; label from the status in PepcDB or PDB records

Row | Sequence | soluble on expression in E. coli
1 | MHHISLTPFGRQPVTAGILASQRLAEARSPLPEIDKWALFADLRTARARFGVSDRDLAVLYALLSFLPGRVLTDAAPLVVFPSNATLSDRAHGMAESTLRRHLAALVEAGLVARRDSANGKRYAHRNRAGELVTAYGFDLRPLLVRAAEIAETAAALEAEAEAMARARTALVLKLRDATKLAAYADPEGRAAGIEPRLMPIRRALRRRLTLADLAEMARTLDLVLGDIRRTLALRAAEMDGTVGRIERHHTESKTESSDLEGGHACGKTSGEAEKDCRNIGGESPDEKANRPSPNRAEPDEARPEELASLEINDNQRPAPTLPLGLVLKACPDLEPYAPEIRNWRDLTAAASRLRGMMGITPSAWEEAKAEMGAETASVALAAILQRFASIRNPGGYLRALTRRASEGAFSPTPMIMALLAETREA | not soluble
2 | SAAAADERSPEDGEDEEEEEQLVLVELSGIIDSDFLSKCENKCKVLGIDTERPILQVDSCVFAGEYEDTLGTCVIFEENVEHADTEGNNKTVLKYKCHTMKKLSMTRTLLTEKKEGEENIGGVEWLQIKDNDFSYRPNMICNFLHENEDEEVVASAPDKSLELEEEEIQMNDSSNLSCEQEKPMHLEIEDSGPLIDIPSETEGSVFMETQMLP | not soluble
3 | MNLSFKIFDISNTQRSKAKKVQGKKYEIFLNENEHSLITPKVSFKEILRYYYLYPKNAIPSFKLPFFKPDLSGFSTPHITWLGHSSLFISFKEYKILIDPIFNTHASPISFINKAFKNAPVYNINDFNEIFAVIITHSHFDHLDAKSVKALKDKAKFFITPLKVGNYLKSYGVSEKKIIELDWWSGIEFGDLKIMATPAQHSSSRGDGKNKTLWASFVMEFLSVDKRVFFSADGGYFTHFKKIGEYFGSFDLACLESGQFNIAWPYSHSFPEQILKEAKDLNAKAVMPIHWGRFLAGTHAWNEVVKFLYENLDLPLITPKMGEAYEVGAKFKQDFWWKEELEHHHHHH | not soluble
4 | MNAEERFDRITRLTRRIFALPICVVTLVDASRQWFKSCQGLEVTETSRDISFCGHAINHDGIFIVNDAQMDPRFHDNPLVTQSPHIRFYAGYPLTIRGEYRVGTLCLIGNEPREFSADDIETLTDLGQMVEAELLSISLNTLDPLEHHHHHH | not soluble
5 | MGSDKIHHHHHHMNFETVIGLEVHVELKTKSKIFSSSPTPFGAEANTQTSVIDLGYPGVLPVLNKEAVEFAMKAAMALNCEIATDTKFDRKNYFYPDNPKAYQISQFDKPIGENGWIEIEVGGKTKRIGITRLHLEEDAGKLTHTGDGYSLVDFNRQGTPLVEIVSEPDIRTPEEAYAYLEKLKSIIQYTGVSDCKMEEGSLRCDANISLRPIGQEEFGTKTELKNLNSFAFVQKGLEHEEKRQEQVLLSGGVIQQETRRYDEATKKTILMRVKEGSDDYRYFPEPDLVELYIDDEWKERVKASIPELPDERRKRYIEELGLPAYDAMVLTLTKEMADFFEETVQKGAEAKQASNWLMGEVSAYLNAEQKELADVALTPEGLAGMIKLIEKGTISSKIAKKVFKELIEKGGDAEKIVKEKGLVQISDEGVLLKLVTEALDNNPQSIEDFKNGKDRAIGFLVGQIMKASKGQANPPMVNKILLEEIKKR | not soluble
6 | MVVSMRWLLSVFTFLCMKYSEASNPRAIILQNFMDSNKEAVKNLKDDNVLSKALVKTFGLNSSSSSSLSDESSSNLVLMDSTTPCDSGWTKSTVNGMCYKIATADTTWYAAEDWCYSQRYGSHLTSVHSEAEAQWIAATYVSTGWFPYMDNWLGLRRSCDNSTYIWTDGTPVDYLWWQPGYPGSGDPEKSCVTIWVTSLLKLNPGYVQGQFDDIWDCGTNLATPTCRYDPTSTAPHIKYDTSYTCASTTTVSTTSTVTTTKPTTTTTTPTTTTTTPTTTTTESTTTETTSTTTPTTTTTAPTTTTTASTTTFKTTTITTTTQTTTPTTTATTTKPTTTTPTTTRTPVDCSAKCDPFWVSYSDGCYAKIQGTATFETAKLGCQSVGGEMAVITDAAMNEAIRLAFSTNIDSSVSNQAWIGTSSYSNWAPGKPDKAQGVAYSSYCNVIALSVVNKGKDFGFSRGVWTDYPCSLKQEFAICKRI | not soluble
7 | MSLKTLATIGDNCVDIYPQLNKAFSGGNAVNVAVYCTRYGIQPGCITWVGDDDYGTKLKQDLARMGVDISHVHTKHGVTAQTQVELHDNDRVFGDYTEGVMADFALSEEDYAWLAQYDIVHAAIWGHAEDAFPQLHAAGKLTAFDFSDKWDSPLWQTLVPHLDFAFASAPQEDEALRLKMKAIVARGAGTVIVTLGENGSIAWDGAQFWRQAPEPVTVIDTMGAGDSFIAGFLCGWSAGMTLPQAMAQGTACAAKTIQYHGAEGHHHHHH | soluble
8 | DKSNKLQNLVAEQLVGCGFNEILNNSLTRAAYYDGLESYPSKNLVMLLNPLSADLNCMRQTLLFGGLESIAHNANRKNADLKFFEFGNCYHFDAEKKNPEKVLAPYSEDYHLGLWVTGKMVSNSWAHADENTSVYELKAYVENIFKRLGLDLHSLVVGNLSDDIYSTALTVNTKGGKRLATFGVVTKKMLKAFDVDNEVYYADLNWKELM | soluble
9 | MNIFEAIENRHSVRDFLERKMPERVKDDIENLLVKFITKKLDWKINLSSFPSYIYAKAEKHFDELVEYGFQGEQIVLFLTAQGFGTCWMARSPHPDVPYIIVFGYPRTRNFTRKRRPITSFLENDLEELPPEIVKIVEMTILAPSALNRQPWKIKYTGGELCISSERPVDLGIALSHAYLTAREIFKREPVIQKRGEDTYCLILNP | not soluble
10 | MIKVGICDTTFARYDMGGAAIDELKKHTAGIKIIRRTVPGIKDLPVACKKLIEEEGCEMVMALGMPGPEEKDKVCAHEASTGLIQAQLMTNTHILEVFVHEDEEDDPEELKVLADNRAREHAQNLIMMLFKPDRLTREAGMGLREGKPDAGPL | not soluble
11 | MSLKPVVVMTQTNDMQSDLVSIIHKPFIDIKPLNFDIHLLNQRYDWLIFSSKNAVKFFYKYLKGINVDNIAVIGSKTAQYCESLGIRVDFMPNDFSQEGFLKSFNQTNQKILLPSSELARPLLLAALSKDNEVVKIDLYTSVPNKQNIQDVKEMIEHQQIDALTFSSSSAVRYYFNEGFVPKFKSYFAIGEQTARTIKTYQQPVTIAEIQTLESLIEKILESRGEGHHHHHH | soluble
12 | MSLPRGLELLIAQTILQGFDAQYGRFLEVTSGAQQRFEQADWHAVQQAMKNRIHLYDHHVGLVVEQLRCITNGQSTDAAFLLRVKEHYTRLLPITRASRLRRAFLTPCTVGYLTTARLLPSGFLSLALSQSAAFVPFPPAGQRLSPRSRLGISTDARYQRPTAAPAWQNKSRDIHYIIRHLTETLGTDNLAESHLQVANELFYRNKAAWLVGKLITPSGTLPFLLPIHQTDDGELFIDTCLTTTAEASIVFGFARSYFMVYAPLPAALVEWLREILPGKTTAELYMAIGCQKHAKTESYREYLVYLQGCNEQFIEAPGIRGMVMLVFTLPGFDRVFKVIKDRFAPQKEMSAAHVRACYQLVKEHDRVGRMADTQEFENFVLEKRHISPALMELLLQEAAEKITDLGEQIVIRHLYIERRMVPLNIWLEQVEGQQLRDAIEEYGNAIRQLAAANIFPGDMLFKNFGVTRHGRVVFYDYDEICYMTEVNFRDIPPPRYPEDELASEPWYSVSPGDVFPEEFRHWLCADPRIGPLFEEMHADLFRADYWRALQNRIREGHVEDVYAYRRRQRFSVRYGEMLFEGHHHHHH | not soluble
13 | MYMKHIENGTRIEGEYIKNKVIQYNMSILTDEVKQPMEEVSLVVKNEEGKIFGGVTGTMYFYHLHIDFLWVDESVRHDGYGSQLLHEIEGIAKEKGCRLILLDSFSFQAPEFYKKHGYREYGVVEDHPKGHSQHFFEKRL | soluble
14 | MTDQMRDMIAQLMGSQHVDNKEKPSMPFDHHSVCRAFLLGVCPHDMVPDSRLQNVVSCRKVHEPAHKADYERAQKEKDHFYDVDAFEIIEHAVHLVDIEIAKVREKLEDDVKTQTSQAADSKAKQVAEIEEKIAKNVDDIEKLGNEGKIEESMKLHKYVEELREKIQEIEDSQTEVKTAGPGSNSAKLRVCEDCGAQLNITDHESRIADHYNGKMHIGMVETRETYLKMKETIDERRKEREEKLGSQRGYQRRESYGRRDRGGDRGEYRGDRDRDRRNRDRSRSRDRSYRRDDRGDRRYDRDNRDRRDRDRRY | not soluble
15 | MNKEEIILSAKNWMHSHFENETTGHDWSHIKRVWKLSKEIQSKEGGDLFTIELAALFHDYSDIKLTTDEQEATKTLINWMETKEIPSELIKKIIRIIQSVSFKKGKNTFKALTIEEKIVQDADRLDAIGAIGIARTFTYGGAHNREIANQNNPKNTTLQHFYDKLLLIKDQLNTETAKTIAKEKQKIMQDFIQALEKELKVLEHHHHHH | soluble
16 | MGSDKIHHHHHHMIDARVKFRHLQTFVEVARQKSVVKAAELLHVTQPAVTKTIRELEEVLGVAVFEREGRGIKITRYGEVFLRHAGAALTALRQGLDSVSQERSGEGPPIRVGALPTVSTRIMPRAIALFLKEKTGARIKIVTGENAVLLEQLRIGDLDLVVGRLAAPDKMTGFSFEHLYSEQVVFAVRAGHPLISGRQSLFAHLSDYPVLMPTRASIIRPFVEHFLIANGIAGLPNQIETVSDSFGRAFVRSSDAIWIISAGVVATDIADGVLAALPVDTSETRGPVGLTMRTDAIPSLPLSILMQTLREVAGTAMAAEAKRTA | not soluble
17 | MAHHHHHHMTENFLIFGLPFLPQCNDTLPSSQFKCLVAEMGPLGQALRPFVVPTLKVGTLDSLIEASDELAKLDPQLENNVEKLIALMEETSQKPRSVVSALRINQTQEMTPAAYIKNFLWSSAQFDTREKIQSLIEKLSQISASIEERIRVLLSEYNETRNRLTAVNRKTQGNLSVKPIRELVASYNQKFQCFVDTEMLVTLFVVVPLASQKEWLETYWSLNEFVCPQSNRVIAEDKECVLNSIVTFRKAMDDVKMICRKKRFTVRDIDGVDDLSVAEVKELNQKAEKERKALYTVLWQQYSLCYVAWVHVKALRVFVESLLKYGLPPRCISVVLQVDGKKEAEIRKKILQIYPNLISPLTNEPPTDTGMLQYEYPYVSLKVTNFQKD | not soluble
18 | MDFYYLPGSAPCRAVQMTAAAVGVELNLKLTDLMKGEHMKPEFLKLNPQHCIPTLVDNGFALWESRAIQIYLAEKYGKDDKLYPKDPQKRAVVNQRLYFDMGTLYQRFADYHYPQIFAKQPANPENEKKMKDAVGFLNTFLEGQEYAAGNDLTIADLSLAATIATYEVAGFDFAPYPNVAAWFARCKANAPGYALNQAGADEFKAKFLS | soluble
19 | MSLGLTPHAPSPLADRLRPQSLDEVVGQQHLLGPEGPIGRMAAARRLASMILWGPPGTGKTTIARLLAKAGGYEFMQISAVFSGVADLKKAFEQARARRMAGQSTLLFVDEIHRFNRAQQDGFLPFVEEGIVTLVGATTENPSFELNGALLSRCQVFVLKRLTEESLELLLQRAEAAENRPLPIDAEARSALVAMADGDGRYLLTLAETLFSIGTDTPLNPTQLGQFLQKRRPAYDKDREEHYNLISALHKSVRGSDPDAALYWLARMLEGGEDPLFIARRLVRMASEDIGAADPLSLLLTTAAKDAYDFLGSPEGELALAQAVVHMASAPKSNAVYTAYKAARRAAKETGSLMPPSHILNAPTKLMKSLGYGDGYAYDHDVEGGVSGQNYFPDGMERRRFYEPKPVGAEAKVRERLEAWGKVRKDGKEGHHHHHH | soluble
